Molecular target: T1, mouse CD137-Fc chimeric protein (mouse), P20334
T1 chain: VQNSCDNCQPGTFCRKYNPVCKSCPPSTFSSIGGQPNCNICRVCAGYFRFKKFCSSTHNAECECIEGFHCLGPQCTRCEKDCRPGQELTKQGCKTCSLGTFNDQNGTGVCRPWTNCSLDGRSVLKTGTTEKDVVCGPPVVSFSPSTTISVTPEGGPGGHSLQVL
Experiment: SPR, CD137-Fc captured, binder injected
Conditions: remark: other sources report otherwise

B1: PRO963 (protein)
chain: DIQMTQSPSSLSASVGDRVTITCQASQSINDYLAWYQQKPGKAPKLLIYKASTLASGVPSRFSGSGSGTDFTLTISSLQPEDFATYYCQQGYIITDIDNVFGTGTKVTVLGGGGGSQVQLQESGPGLVKPSETLSLTCKVSGFSFSNSYWICWIRQPPGKGLEWIGCTFVGSSDSTYYANWAKGRVTISVDSSKNQFSLKLSSVTAADTAVYYCARHPSDAVYGYANNLWGQGTLVTVSSGGGGSGGGGSGGGGSGGGGSIQMTQSPSSLSASVGDRVTITCQASQSINNVLAWYQQKPGKAPKLLIYRASTLASGVPSRFSGSGSGTDFTLTISSLQPEDFATYYCQSSYGNYGDFGTGTKVTVLGGGGGSQVQLQESGPGLVKPSETLSLTCKVSGFSFSSGYDMCWIRQPPGKGLEWIGCVVAGSVDITYYASWAKGRVTISVDSSKNQFSLKLSSVTAADTAVYYCARKDAYSDAFNLWGQGTLVTVSSGGGGSGGGGSIQMTQSPSSLSASVGDRVTITCQSSESVYSNNQLSWYQQKPGQPPKLLIYDASDLASGVPSRFSGSGSGTDFTLTISSLQPEDFATYYCAGGFSSSSDTAFGGGTKLTVLGGGGGSGGGGSGGGGSGGGGSEVQLVESGGGLVQPGGSLRLSCAASGFSLSSNAMGWVRQAPGKGLEYIGIISVGGFTYYASWAKGRFTISRDNSKNTVYLQMNSLRAEDTATYFCARDRHGGDSSGAFYLWGQGTLVTVSS
- Kd: 0.17 µM
- koff: 0.059 s⁻¹
- kon: 350000 M⁻¹ s⁻¹
